Source: patent US20140087995A1 (published 2014)
Numbered stars: 1 amine (or outer) side, 2 acyl side, 3 side chain; on linkers, the order of the positions; unused ones are H or OH. Bridge positions count the residues as written; N and C are the ends. Square brackets hold non-standard residues; d marks the D form. Side chains are listed from the residue outwards. Ends that are not written are not given here. * marks the point of attachment. C20 diacid = O=C(O)CCCCCCCCCCCCCCCCCCC(=O)*; γGlu = O=C(O)[C@H](CCC(=O)[*:2])N[*:1]

T1: rat calcitonin receptor (rat, UniProt P32214 25-516)
T1 construct: whole, on cells; Used as membranes prepared from the transfected cells; also called rCTR; rat calcitonin (a) receptor
T1 sequence (looked up): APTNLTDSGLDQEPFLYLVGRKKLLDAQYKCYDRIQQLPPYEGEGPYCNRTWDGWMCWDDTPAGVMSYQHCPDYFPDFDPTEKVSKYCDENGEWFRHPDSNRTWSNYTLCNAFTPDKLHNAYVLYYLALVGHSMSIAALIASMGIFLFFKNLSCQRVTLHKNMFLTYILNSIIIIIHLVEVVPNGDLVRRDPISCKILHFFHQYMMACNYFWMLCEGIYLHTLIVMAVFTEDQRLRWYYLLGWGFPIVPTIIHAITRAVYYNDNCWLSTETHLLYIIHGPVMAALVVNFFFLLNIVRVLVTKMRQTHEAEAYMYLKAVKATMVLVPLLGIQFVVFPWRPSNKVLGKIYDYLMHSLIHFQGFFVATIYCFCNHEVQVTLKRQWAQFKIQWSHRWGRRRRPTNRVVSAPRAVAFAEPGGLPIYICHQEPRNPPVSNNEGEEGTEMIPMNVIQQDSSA

T2: human calcitonin receptor (human, UniProt P30988 25-474)
T2 construct: whole, on cells; Used as membranes prepared from the transfected cells (Assay VII); also called hCTR; hCT
T2 sequence (looked up): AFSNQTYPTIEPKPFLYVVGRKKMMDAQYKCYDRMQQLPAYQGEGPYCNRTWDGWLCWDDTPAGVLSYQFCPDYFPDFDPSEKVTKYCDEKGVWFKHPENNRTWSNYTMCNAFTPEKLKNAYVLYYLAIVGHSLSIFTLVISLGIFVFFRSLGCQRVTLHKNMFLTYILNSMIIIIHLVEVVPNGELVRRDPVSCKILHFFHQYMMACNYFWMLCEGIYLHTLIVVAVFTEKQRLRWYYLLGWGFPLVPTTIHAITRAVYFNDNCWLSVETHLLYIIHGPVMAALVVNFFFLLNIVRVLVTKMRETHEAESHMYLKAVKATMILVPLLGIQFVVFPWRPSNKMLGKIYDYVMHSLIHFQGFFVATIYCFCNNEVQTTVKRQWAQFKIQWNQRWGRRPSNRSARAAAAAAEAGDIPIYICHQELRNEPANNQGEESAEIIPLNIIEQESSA

T3: rat amylin receptor (rat calcitonin receptor + rat RAMP 3) (rat, UniProt P32214 25-516; Q9JJ73 23-147)
T3 construct: whole, on cells; Used as membranes prepared from the transfected cells; also called rAmylin-R; rat amylin 3(a) receptor
T3 sequence (looked up) 1: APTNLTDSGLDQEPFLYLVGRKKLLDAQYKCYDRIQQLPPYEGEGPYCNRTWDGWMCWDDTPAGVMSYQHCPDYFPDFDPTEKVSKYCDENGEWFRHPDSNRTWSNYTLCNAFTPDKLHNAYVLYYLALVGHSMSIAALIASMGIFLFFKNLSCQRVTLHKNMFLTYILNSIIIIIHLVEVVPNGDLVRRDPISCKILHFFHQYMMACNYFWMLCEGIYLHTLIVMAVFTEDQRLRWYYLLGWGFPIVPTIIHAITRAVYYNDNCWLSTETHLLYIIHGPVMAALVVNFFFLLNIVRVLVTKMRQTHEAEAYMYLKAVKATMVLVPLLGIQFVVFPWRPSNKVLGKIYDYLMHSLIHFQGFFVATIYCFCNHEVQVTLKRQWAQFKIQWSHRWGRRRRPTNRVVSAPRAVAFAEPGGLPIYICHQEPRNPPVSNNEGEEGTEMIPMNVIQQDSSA
T3 sequence (looked up) 2: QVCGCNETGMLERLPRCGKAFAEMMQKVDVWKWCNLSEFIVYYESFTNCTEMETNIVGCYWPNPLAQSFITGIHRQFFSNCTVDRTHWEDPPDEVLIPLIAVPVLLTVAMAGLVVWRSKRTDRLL

T4: human calcitonin receptor (human, UniProt P30988 25-474)
T4 construct: whole, on cells; Membranes of BHK cells stably transfected with the human calcitonin receptor (Assay VII); also called hCTR; hCT
T4 sequence (looked up): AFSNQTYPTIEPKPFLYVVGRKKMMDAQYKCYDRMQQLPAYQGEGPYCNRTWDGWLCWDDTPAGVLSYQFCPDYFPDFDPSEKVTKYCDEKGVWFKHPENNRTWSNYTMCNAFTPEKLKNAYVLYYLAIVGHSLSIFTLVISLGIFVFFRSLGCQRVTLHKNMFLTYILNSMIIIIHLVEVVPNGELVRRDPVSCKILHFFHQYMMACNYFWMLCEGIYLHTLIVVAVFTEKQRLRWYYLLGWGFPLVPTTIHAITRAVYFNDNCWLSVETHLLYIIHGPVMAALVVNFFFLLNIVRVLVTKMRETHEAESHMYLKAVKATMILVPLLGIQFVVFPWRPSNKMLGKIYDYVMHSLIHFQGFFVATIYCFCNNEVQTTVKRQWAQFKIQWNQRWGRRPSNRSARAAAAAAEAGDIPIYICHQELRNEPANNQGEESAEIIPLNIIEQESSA


Legend:
rat calcitonin receptor [1] = molecular target: T1, rat calcitonin receptor; experiment: SPA competition with 125I-calcitonin, membranes of BHK cells with rat calcitonin receptor (Assay VIII)
[2] = molecular target: T2, human calcitonin receptor; experiment: ratio IC50 human calcitonin receptor / IC50 human amylin receptor (Assays VII and V)
In short: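 Scintillation proximity competition binding on cell membranes at 35 ng/μL with SPA beads, in 50 mM Hepes pH 7.4, 1 mM CaCl2, 5 mM MgCl₂, 0.1% OA, 0.02% Tween20. Incubated 120 min at 25° C with shaking. IC₅₀ from one-site competition fit.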

rat calcitonin receptor [3] = molecular target: T1, rat calcitonin receptor; experiment: ratio IC50 rat calcitonin receptor / IC50 rat amylin receptor (Assays VIII and VI)
[4] = molecular target: T3, rat amylin receptor (rat calcitonin …); experiment: SPA competition with 125I-rat amylin, membranes of BHK cells with rat calcitonin receptor + rat RAMP3 (Assay VI)
[5] = molecular target: T4, human calcitonin receptor; experiment: SPA competition against 125I-calcitonin, membranes of BHK cells with human calcitonin receptor (Assay VII)
Procedure: Membranes were prepared in the following way; the cells were rinsed with PBS and incubated with Versene for approximately 5 min before harvesting. The cells were flushed with PBS and the cell-suspension was centrifuged for 5 min at 1000 rpm. Cells were homogenized (Ultrathurrax) in a buffer containing 20 mM Na-HEPES and 10 mM EDTA (pH 7.4) and centrifuged at 20.000 rpm for 15 min. The resulting pellet was resuspended, homogenized and centrifuged (20.000 rpm, 15 min) in a buffer containing 20 mM Na-HEPES and 0.1 mM EDTA (pH 7.4, buffer 2). The resulting pellet was resuspended in buffer 2 and protein concentration was measured (BCA protein Assay, Pierce). The homogenate was kept cold during the whole procedure. The membranes were kept at −80° C. until use. Assay was performed in a 384 well Optiplate (PerkinElmer) in a total volume of 40 ul. Membranes were mixed with SPA beads. Final concentration of membranes 35 ng/μL final and Final concentration of SPA beads was 0.05 mg/well. Test-compounds were dissolved in DMSO and further diluted in assay buffer (50 mM Hepes, pH 7.4, 1 mM CaCl2, 5 mM MgCl₂, 0.1% OA and 0.02% Tween20). […] The final mixture was incubated for 120 min with shaking at 400 rpm at 25° C. prior to centrifugation (1500 rpm, 10 min). Samples were analyzed on TopCounter™ (Packard). The […] was calculated using (one site binding competition analysis) GraphPad Prism5 as a measure of receptor affinity.

Row | IC50 (rat calcitonin receptor [1]) | Ratio hCT/hAmylin binding [2] | Ratio rCT/rAmylin binding (rat calcitonin receptor [3]) | IC50 [4] | IC50 [5] | Binder
1 | 2.71 nM | 2.5 | 5 | 0.544 nM |  | K([γGlu-C20 diacid])CNTATCATQRLAEFLRHSSPNFGAIPSSTNVGSNTP-NH2 (disulfide 2-7; N-terminus assumed; SMILES CC[C@H](C)[C@H](NC(=O)[C@H](C)NC(=O)CNC(=O)[C@H](Cc1ccccc1)NC(=O)[C@H](CC(N)=O)NC(=O)[C@@H]1CCCN1C(=O)[C@H](CO)NC(=O)[C@H](CO)NC(=O)[C@H](Cc1c[nH]cn1)NC(=O)[C@H](CCCNC(=N)N)NC(=O)[C@H](CC(C)C)NC(=O)[C@H](Cc1ccccc1)NC(=O)[C@H](CCC(=O)O)NC(=O)[C@H](C)NC(=O)[C@H](CC(C)C)NC(=O)[C@H](CCCNC(=N)N)NC(=O)[C@H](CCC(N)=O)NC(=O)[C@@H](NC(=O)[C@H](C)NC(=O)[C@@H]1CSSC[C@H](NC(=O)[C@@H](N)CCCCNC(=O)CC[C@H](NC(=O)CCCCCCCCCCCCCCCCCCC(=O)O)C(=O)O)C(=O)N[C@@H](CC(N)=O)C(=O)N[C@@H]([C@@H](C)O)C(=O)N[C@@H](C)C(=O)N[C@@H]([C@@H](C)O)C(=O)N1)[C@@H](C)O)C(=O)N1CCC[C@H]1C(=O)N[C@@H](CO)C(=O)N[C@@H](CO)C(=O)N[C@H](C(=O)N[C@@H](CC(N)=O)C(=O)N[C@H](C(=O)NCC(=O)N[C@@H](CO)C(=O)N[C@@H](CC(N)=O)C(=O)N[C@H](C(=O)N1CCC[C@H]1C(N)=O)[C@@H](C)O)C(C)C)[C@@H](C)O, Derivative of human amylin; also called compound 12)
2 | 60.1 nM | 15.7 | 32.4 | 1.86 nM |  | {C20 diacid-γGlu}-KCNTATCATQRLAEFLRHSSPNFGAIPSSTNVGKNTY-NH2 (disulfide 2-7; SMILES CC[C@H](C)[C@H](NC(=O)[C@H](C)NC(=O)CNC(=O)[C@H](Cc1ccccc1)NC(=O)[C@H](CC(N)=O)NC(=O)[C@@H]1CCCN1C(=O)[C@H](CO)NC(=O)[C@H](CO)NC(=O)[C@H](Cc1c[nH]cn1)NC(=O)[C@H](CCCNC(=N)N)NC(=O)[C@H](CC(C)C)NC(=O)[C@H](Cc1ccccc1)NC(=O)[C@H](CCC(=O)O)NC(=O)[C@H](C)NC(=O)[C@H](CC(C)C)NC(=O)[C@H](CCCNC(=N)N)NC(=O)[C@H](CCC(N)=O)NC(=O)[C@@H](NC(=O)[C@H](C)NC(=O)[C@@H]1CSSC[C@H](NC(=O)[C@H](CCCCN)NC(=O)CC[C@H](NC(=O)CCCCCCCCCCCCCCCCCCC(=O)O)C(=O)O)C(=O)N[C@@H](CC(N)=O)C(=O)N[C@@H]([C@@H](C)O)C(=O)N[C@@H](C)C(=O)N[C@@H]([C@@H](C)O)C(=O)N1)[C@@H](C)O)C(=O)N1CCC[C@H]1C(=O)N[C@@H](CO)C(=O)N[C@@H](CO)C(=O)N[C@H](C(=O)N[C@@H](CC(N)=O)C(=O)N[C@H](C(=O)NCC(=O)N[C@@H](CCCCN)C(=O)N[C@@H](CC(N)=O)C(=O)N[C@H](C(=O)N[C@@H](Cc1ccc(O)cc1)C(N)=O)[C@@H](C)O)C(C)C)[C@@H](C)O, Derivative of human amylin; also called compound 36)
3 |  |  |  |  | 112 nM | K([γGlu-γGlu-C20 diacid])CNTATCATQRLA[dD]FLRHSSPNFGAIPSSTNVGSRTY-NH2 (disulfide 2-7; N-terminus assumed; SMILES CC[C@H](C)[C@H](NC(=O)[C@H](C)NC(=O)CNC(=O)[C@H](Cc1ccccc1)NC(=O)[C@H](CC(N)=O)NC(=O)[C@@H]1CCCN1C(=O)[C@H](CO)NC(=O)[C@H](CO)NC(=O)[C@H](Cc1c[nH]cn1)NC(=O)[C@H](CCCNC(=N)N)NC(=O)[C@H](CC(C)C)NC(=O)[C@H](Cc1ccccc1)NC(=O)[C@@H](CC(=O)O)NC(=O)[C@H](C)NC(=O)[C@H](CC(C)C)NC(=O)[C@H](CCCNC(=N)N)NC(=O)[C@H](CCC(N)=O)NC(=O)[C@@H](NC(=O)[C@H](C)NC(=O)[C@@H]1CSSC[C@H](NC(=O)[C@@H](N)CCCCNC(=O)CC[C@H](NC(=O)CC[C@H](NC(=O)CCCCCCCCCCCCCCCCCCC(=O)O)C(=O)O)C(=O)O)C(=O)N[C@@H](CC(N)=O)C(=O)N[C@@H]([C@@H](C)O)C(=O)N[C@@H](C)C(=O)N[C@@H]([C@@H](C)O)C(=O)N1)[C@@H](C)O)C(=O)N1CCC[C@H]1C(=O)N[C@@H](CO)C(=O)N[C@@H](CO)C(=O)N[C@H](C(=O)N[C@@H](CC(N)=O)C(=O)N[C@H](C(=O)NCC(=O)N[C@@H](CO)C(=O)N[C@@H](CCCNC(=N)N)C(=O)N[C@H](C(=O)N[C@@H](Cc1ccc(O)cc1)C(N)=O)[C@@H](C)O)C(C)C)[C@@H](C)O, Residue 14 is D-aspartic acid (printed 14d))
